The target of one test is H3.3S31A-nucleosome (UniProt P84243).
The target in the next test is H3.3S31E-nucleosome (UniProt P84243).
Test [1] deals with H3.3S31ph-nucleosome (H3.3-nucleosome with Ser31 phosphorylation) (UniProt P84243).
Test [2] deals with H3-nucleosome (mono-nucleosome with canonical H3) (UniProt P84233).
In test [3] the target is H3.3-nucleosome (mono-nucleosome with the variant H3.3) (UniProt P84243).

On to “FACT (Facilitates Chromatin Transcription) complex (from UniProt Q9Y5B9 1-1047; Q08945 1-709)”, for which the rupture force at which the nucleosome is completely disrupted in the presence of FACT (magnetic tweezers) was determined as 25.4 pN with H3.3S31A-nucleosome, 25.4 pN with H3.3S31E-nucleosome, 6.7 pN in test [2] and 24.5 pN in test [3]. For the same substance, the force of disruption in the first stretching cycle in the presence of FACT; no transitions in later cycles (magnetic tweezers) in test [1] was 13.9 pN.

The values are drawn from PMC12445699.
